Laboratory results published in a protein production outcome set (Wang et al. 2014).

experiment: label from the status in PepcDB records

| Sequence | protein production |
| --- | --- |
| MTFLSQLSTHADKAFLRRLFAIALPITLQSIMFSSRSLVDVLMLGQLGEAEIAAVGVAARATFVTTIMLVGVTTGGALLTAQYWGAGDKIGVRQSTSLTWMIAMVFAALAVCLFVFFPQPIMGLTTDSQEVIELGSSYLVISSASMFAVACVASMAVGLRAMHQPGLSTFFSGIGILSNVFLNWVLIFGHLGFPALGITGAAIATVISGAIEVGCLFGYLWLKKHIIAFGWGDIRASLVLDKITRFLSLSLPTTFNFLAWAGGLFAYHAIMGQAGVQGLAALSVMTPVESIALAMMIGLSNAAAVLVGNQLGAKNFEPVYYQAWATVILNVLIAFGVAVLLFFTNQLILDAFSALSAETRHLAEQFMVILALGVILRSVPMMVIVGVLRAGGDVKFCLYQDVFAQWIIGIPLAAFAAIYLGWEPQWVYLLFLTEEVVKWCICLPRMKSKKWMKNLIEK | not failed |
| MTFRESVPFIVAIAATIPGILLRVVHPDISPLLMASLTGLAILGASFMLMWACEVAQMDIPQTLALAVVALIAVLPEYAVDMYFTWMAGQHPESNYAHYAIANMTGANRLLIGIGWSAIAILYALRFRKAVQLEEERRSELLFLALATAYALVIPLKGTLEWYDGVILVSLYVWYIRIASKRPCTDCEVEGPAEALAHLPRNTRRLTTLGLFLFAAGVILCDAELFSESLVASGKVLGINEFLLVQWLAPIASEAPEFIVAIMFATRGQASLALGSLISSKLNQWTLLVGMIPGVFAVSSGSINPPMPMDDHQMHELLLTAAQSLFAVVLLARMRLGLRGALVLLALFIGQFAAPLYEPYVENLLGIPHMPDGLHIVYSGLYIALALGMMLYRPGRLLQLREGLKV | failed |
| MTFRGPSPPRFGHSMDLPAYAIEAEGLYKTYAGTKTSPEKRALNGIDLKIPRGSIFGLLGPNGAGKSTFINILAGLVRKSSGTVRIWGRDIDQRPRDARAAIGVVPQELAADVFFTPRESLEVQAGFYGVPKSERRTDELLNALGLGDKAGAYVRQLSGGMKRRLMVAKAMVHQPPVLILDEPTAGVDVELRRQLWQYVTSLNELGVTIVLTTHYLEEAQELCDEIAIINRGEVVACEPTAKLLSRMDSRNVVVTPESPVTAAPVLEGFDTKLRSGGAFSVSYRTGQSSVEQVLAAVRASGLHIKDIATEDPDLEDVFVALTYGDPNAADPTKDLEHHHHHH | failed |
| MTFSSKLKSFCSRYFSSHEKDKYKALMKQKLLNPLSSSSPNYDEMIQENFKPHWIIGIDPNLSGALAVLKFDDKGSCSAQVNPY | failed |
| MTFVLNTFGRLQLVDGQGSLVAFPEKGLLLLVYLLTTGEGSADRTSLARFLWGDADRDVALSTLRKLISRIKARQTELGINILSSQGNMVSLDRESLSSDLLLSETDEAVASFSLLKHLVKLLNQPFLGPVHCHSREFQHWLAEREKSHIDLLANTLKAVSQRAQSRTESELLRKAAIILFRTEPKDPDTLQLLIEIFKAEEEVESLRNHFEQRRISISRGIAVRTASDGGDTKPVLPALAPSREKHATAVSLEPEDISIAIPRLVLLPPRNQSIHPQAGFLAASLVEDITIGFCAFNSLQVIAPYSAVQIGHHMETQKAFFERHHVNYILDTRISNAGDDVTLFAQLIFFDQNQIVWAERFSLDHRDLVKDRRTVSRRIALSISSEIERHEALREDLNPAAYHRYLVGRRHLARLTLPNLRRARKEMKAALSVSPDFAPALSSMARTYSKEWLLTARGDIDLLKTAETLATQATETRPDFADGYREFGVAKLLQGAFDQSAEAMEVAESLAPHYADVIADYADTLVHCSLPAIALRKIERAIELNPLSPDTYFWTAAGANYALGEFEASLDYIGQMADASLADRLAAANWAMLGHQDKARTFVRRFREVNPDFDVDKWLSAVPSKEQWHKDLYREGLKKAGF | failed |
| MTGAETGSHFRRHALDAKPIGMSDHEQTKLIATAMNEGSPQAKALGFTTLEIGDAVALLKVPYRPEIIGDPETGVIAGGVVTTLLDHASGQAVHAAMETWTSIATLDLRIDYMRAAEPGLDVMARAHCYKLTRSVAFVRAVAYDRDPEDPIATGQATFMLDSSAGKKAGANLKPSRQQRSKTGGVDQ | failed |
| MTGCSHRFYYSHMIQTSVRSFEVGEDLASMAVDERISLLRSRMQSISKSGDFSLDYNCKTADKNIIPLSDPLSHVLPWGGLPRGMIVESTITPLLAILFIAQVSGSGRRVGVVGWPDLNYAGVLGYGGCYERIFAVPQQERTSLRVVTALAHGCDLVITRAGPTPRTYTPLQTQRFRNSLRSDAGCVIMMGDHVVSPAARLASAVVGYHGIGKGTGRIKAVEITVTGIAKGFYRTSRVIVGKHIAPAAEKTTMKVVLEHHHHHH | not failed |
| MTGEGTNYLIVGSDSRAGMSAEEKKKLHTGSAEGKRTDSMMILHTGDNGSTLVSLPRDSDVEIPTFKGSTSGKTYPGTGRHVKLNAAYAEDGPELLVRTIEYNTGLHIDHYVEIGFAGFANIVDSVGGVEMTLDKGFKDTFSGADFKAGKQTLNGEQALAFVRTRHAFAASDLERTKNQQKFLSALAHQVATPSTVLNPFKLYPTLSSGLDTLIVDKDMGLFDLADMFWAMKGVTGGDGTSMNMPISGSSGGNLVWDKAKVKALVNELKNDEKVTVSGNLEHHHHHH | not failed |
| MTGEVPGAAAQVFARAEALRDLGRPAEALGLVRQGLASDPHDVTLLVLATTLSLALEDYAQAADFATQAAAQAPGWALPLALLAQARRLADDPAGGKQAAQAALHLDPDEALAHFEVGLATALEAEQAPLWHRRRLLTEARAAASRVEALWPGQADGPALQALIDIVAGHWPQHEANIARALEREPDDSFAHNVRLLGLQARHSGETVPQLYERLRSRPDDVFARSQCVPTFPSRAGCGSIGGAGGGFFHCWW | failed |
| MTGGLLVTGGSGAIGGALCRIAARQHPVWVGYGAGAGRARALAAEITQAGGRAEPLALPLQDPAALETALAALPEPPASLALCAWPAPFVAPFGRQGEDLALQAAALAGCHALIATAWRLWWRRAGGGHVLAVLSAASEPPVARHMAAYVAQKAALRALLAAAAAELGPAGLRVSVVAPGFVETPMLGAFDPRLLERARADAGGRFLSPERVAQALVAALDAPPPAGTVQDIHLAEEVESDEKQTA | failed |
| MTGKEDEYEFEKTEKSSSLDEESTGSEVNEQKESYLDIINIIGSLMQDENYSLKNESILTINKILSFLNKEIYENKNFTEAWLIKGTVLYKTGKYNGAIDAFDGALESMSEKTSEEKLDTWIKSYGINYRYALKFKAFSLCKLGRYREALNALDEISAIYPEDPEIESHKNMLQTLENERLIRRTGNTQDQPPKHPGIWERRGKSSYKLGKYEEAVKEFDRCLESNPKDADILRNKGSALYMLGRYEEAIEAFNKSLELNPRDADAWNLKGSTLYMIGRPEEALRALDKALQRNPNIFEAWFNKGSILFELGKYKQALSAVENALRINAEDINALTLKTSILSGLKQDEK | failed |
| MTGPDRVALLVLAALVLDWLLGDPRWLPHPVVAVGRLVTALERQLRRLVTNERAAGVILLVLTVGITGGTAWLLVLGAGLVHPVAGFAVEALLGWTCLAARSLHGESKLVADALAAGDLAEARFFLSRIVGRDTAELTEPEIWRGVVETVAENTSDGVIAPLFWFMIGGAPLALAYKAVNTLDSMVGYKNERYLHFGWASARFDDLVNLLPARITGLLMVLSAPLAGLSGPGAWRIMRRDGRNHSSPNAGIPEAAAAGALGVRLGGMNVYFGRPVAKPTIGDPLNPLDRTAWRGAVRLMYGSEILLTGFMLCYLFVLERP | failed |
| MTGRLVLAATPMGDVGDASPRLRTALGTADVVAAEDTRRTKALASALDVTITGKVVSFYDQVETARLPALVADVASGKTVLLVTDAGMPSVSDPGYRLVSACVAEDLAVTCLPG | failed |
| MTGSVVVAGLGPGAQELITPEVSAALALATDIVGYAPYVARVAERDGLQRHASDNREELDRAGFALRLATEGRHVVIVSSGDPGVFAMAAALFEAIEAGDPSWRELDIRVLPGISAMFATAARIGAPLGHDFCAINLSDNLKPWETVEKRLRAAAEADFVIALYNPISKARPWQLGRAFELLRSIHPASVPVIFATAISDPRERIDVAPLGEAVPQRADMRTLVMIGSSQTRIIPRSSGADFVYTPRFSGAVS | failed |
| MTGTLLSFGHGYTARVLSRALAPQGWRIIGTSRNPDQMEAIRASGAEPLLWPGEEPSLDGVTHLLISTAPDSGGDPVLAALGDQIAARAAQFRWVGYLSTTAVYGDHDGAWVDETTPLTPTAARGRWRVMAEQQWQAVPNLPLHVFRLAGIYGPGRGPFSKLGKGGIRRIIKPGQVFSRIHVEDIAQVLAASMARPDPGAVYNVCDDEPVPPQDVIAYAAELQGLPLPPAVDFDKADLTPMARSFYSENKRVRNDRIKEELGVRLKYPNYRVGLEALQADAET | not failed |
| MTHIIIDGDACPVVDSIIDLTTETGIFVTIIRSFSHFSNQLYPPHVSTLYVDDGPDAVDYKIVQLSTKDDIVVTQDYGLASLLVDKVLIVMHHNGKIYNSKNIQQLLDKRYINAQIRKQGGRHKGPPPFTKQDQKVFEQSLLKVIHRIKELDLEHHHHHH | not failed |
| MTHLQGVRHAHRQVTAGVRGLTRHLCMVLVGCSLGLVAAGCTREPSSPTARASHSDAAPATPTASPAPASTPPPAADPSVLRVCADPGNMPLSNKAGEGFQNKIAQVVAEAMGRRLEYEWRTYYQRGLARSTINAGRCDVLMDLNSDFEMGLTTRPLYRSPYVLVTRKGLDLVPTSLDDPALKKLRLGVFQSSPARQALYEHGVSGEVKYLFYDSATAPEEHPGKLVERVAAGELDAAESWGPVAGYYAARNNLGVVPLNTIDDAVLEYSMAWAVARKNAALRDALNTALQQSAAKIDEILRSYHVPLVRCADCIVAGDLASHGPYVTPASAPKSTNAATSSQELAQLQLRIADGADPNQELAHALDAGDALRAAWLLRHGADANQPNLLGEPPLHQAIRNQEPDLVGLLIDAGARLDARDGNGWTALMKAAWGNDADSVQRLLARRAPLDTVSSDGWNALELAVSYADVGVVEALLKAGAKARGANRTGFTPVMFAVPREDPAILDALLKHGADVRGANQAGVTALMLAAASGREATAKRLLAAGADPAARNRDGKTAATLAQERGDAALAALLAPGKRSTTQ | failed |
| MTHNHHHQAVDNLLNVFSRASHDLTVVHSKLDKEFQQMYPANANPMKLIQRIKKLQEDVTLLKHQCLDLLSAKQDLIDKAQTTLVGNCNLIQKMNASLGESTNGDTDDALADFNQIIDEWTMQVRSRTVGETEDADKEDINKMLFSAICHTN | failed |
| MTHQVIDCLGVVLAGGLSSRMGQDKAQLKRLQKTTDPSAKSAHSMLDFSKQLLADAGIKNIVISGDNHQIPDRVPHAGPVGGIYSVLSHYLANSPEHLQPKALLILPVDLPLMTASALTELRLKGELSHKATFFSDRQKNRHHIPLYLPNNAFLNMFLMQAFHREELLANSKGNNKKNGPSVRAMLEQVPHQAIASLNNQVLFNTNTPEQWQQAQQKF | failed |
| MTHRIAPRCFSTIMLLCLLYTSPLDVIAQGQGGQGDIPVVNPTAPGGSTTTPTITQPSPPSLTFPGPTTPTGGYPPLDGTTPTGGYPPLYGTTPPGGGDVGGGGGGYGGGTPGGGGGGGGDTGAGAGGGGYGGGGDTGAGGGVGSGQWCIAKANASPTSLQVALDYACGYGGADCGQIQQGAACYEPNTIRDHASFAFNSYYQKHPGSDSCNFGGAAQLTSTDPSKTS | failed |
